Key:
[1] = target: DNA gyrase holoenzyme (EcGyr) (Escherichia coli, UniProt P0AES4;P0AES6 1-875;1-804); test: EMSA; 1.4 mM ATP; one complex; EMSA: 35 mM Tris-HCl pH 7.5, 1 mM spermidine, 25 mM K-glutamate, 90 ug/ml tRNA, 1.4 mM ATP, 50 ug/ml BSA, room temp (25 C), 1 nM DNA; filter binding: same mix o
[2] = target: T1, DNA gyrase holoenzyme (MsGyr) (Mycobacterium smegmatis, UniProt P48354;P0C559 1-842;1-675); test: EMSA; 1.4 mM ATP; one complex; EMSA: 35 mM Tris-HCl pH 7.5, 1 mM spermidine, 25 mM K-glutamate, 90 ug/ml tRNA, 1.4 mM ATP, 50 ug/ml BSA, room temp (25 C), 1 nM DNA; filter binding: same mix on ice; SPR: 33 mM Tris-HCl pH 8.0, 5 mM MgCl2, 3 mM DTT, 25 C; conditions: protein: recombinant; chain copies: 2;2; label: 32P 5'-end; blunt
[3] = target: EAMB hybrid gyrase (EcGyrA + MsGyrB) (Escherichia coli / Mycobacterium …, UniProt P0AES4;P0C559 1-875;1-675); test: EMSA; two complexes; EMSA: 35 mM Tris-HCl pH 7.5, 1 mM spermidine, 25 mM K-glutamate, 90 ug/ml tRNA, 1.4 mM ATP, 50 ug/ml BSA, room temp (25 C), 1 nM DNA; filter binding: same mix on ice; SPR: 33 mM Tris-HCl pH 8.0, 5 mM MgCl2, 3 mM DTT, 25 C; conditions: protein: recombinant; chain copies: 2;2; label: 32P 5'-end; blunt
[4] = target: MAEB hybrid gyrase (MsGyrA + EcGyrB) (Mycobacterium smegmatis / Escherichia …, UniProt P48354;P0AES6 1-842;1-804); test: EMSA; one complex; EMSA: 35 mM Tris-HCl pH 7.5, 1 mM spermidine, 25 mM K-glutamate, 90 ug/ml tRNA, 1.4 mM ATP, 50 ug/ml BSA, room temp (25 C), 1 nM DNA; filter binding: same mix o
GyrB R321A = GyrB R321A (Mycobacterium smegmatis, UniProt P0C559 1-675, R321A); test: EMSA; 200 and 400 nM; complex not seen; EMSA: 35 mM Tris-HCl pH 7.5, 1 mM spermidine, 25 mM K-glutamate, 90 ug/ml tRNA, 1.4 mM ATP, 50 ug/ml BSA, room temp (25 C), 1 nM DNA; filter binding: same mix on ice; SPR: 33 mM Tris-HCl pH 8.0, 5 mM MgCl2, 3 mM DTT, 25 C; conditions: protein: recombinant; label: 32P 5'-end; blunt
[5] = target: Topoisomerase IV holoenzyme (Escherichia coli, UniProt P0AFI2;P20083 1-752;1-630); test: EMSA; 5-40 nM; two complexes; EMSA: 35 mM Tris-HCl pH 7.5, 1 mM spermidine, 25 mM K-glutamate, 90 ug/ml tRNA, 1.4 mM ATP, 50 ug/ml BSA, room temp (25 C), 1 nM DNA; filter binding: same mix on ice; SPR: 33 mM Tris-HCl pH 8.0, 5 mM MgCl2, 3 mM DTT, 25 C; conditions: protein: recombinant; chain copies: 2;2; label: 32P 5'-end; blunt
[6] = target: T1, DNA gyrase holoenzyme (MsGyr); test: EMSA; 1.4 mM ATP; two complexes; EMSA: 35 mM Tris-HCl pH 7.5, 1 mM spermidine, 25 mM K-glutamate, 90 ug/ml tRNA, 1.4 mM ATP, 50 ug/ml BSA, room temp (25 C), 1 nM DNA; filter binding: same mix on ice; SPR: 33 mM Tris-HCl pH 8.0, 5 mM MgCl2, 3 mM DTT, 25 C; conditions: protein: recombinant, chain copies: 2;2, blunt
ParE = ParE (Escherichia coli, UniProt P20083 1-630); test: filter binding; 20 nM protein; most efficient of those tested; EMSA: 35 mM Tris-HCl pH 7.5, 1 mM spermidine, 25 mM K-glutamate, 90 ug/ml tRNA, 1.4 mM ATP, 50 ug/ml BSA, room temp (25 C), 1 nM DNA; filter binding: same mix on ice; SPR: 33 mM Tris-HCl pH 8.0, 5 mM MgCl2, 3 mM DTT, 25 C; conditions: protein: recombinant; label: 32P 5'-end; blunt
GyrB (MsGyrB) = GyrB (MsGyrB) (Mycobacterium smegmatis, UniProt P0C559 1-675); test: EMSA; 0.1 and 0.2 uM GyrB; EMSA: 35 mM Tris-HCl pH 7.5, 1 mM spermidine, 25 mM K-glutamate, 90 ug/ml tRNA, 1.4 mM ATP, 50 ug/ml BSA, room temp (25 C), 1 nM DNA; filter binding: same mix on ice; SPR: 33 mM Tris-HCl pH 8.0, 5 mM MgCl2, 3 mM DTT, 25 C; conditions: protein: recombinant; label: 32P 5'-end; blunt
[7] = target: T1, DNA gyrase holoenzyme (MsGyr); test: pull-down; first DNA, then 240 bp; 200 nM enzyme; EMSA: 35 mM Tris-HCl pH 7.5, 1 mM spermidine, 25 mM K-glutamate, 90 ug/ml tRNA, 1.4 mM ATP, 50 ug/ml BSA, room temp (25 C), 1 nM DNA; filter binding: same mix on ice; SPR: 33 mM Tris-HCl pH 8.0, 5 mM MgCl2, 3 mM DTT, 25 C; conditions: protein: recombinant; chain copies: 2;2; label: biotin on one strand, 32P on complement; blunt

B1: DNA I (40 bp) (dsDNA)
DNA 1: GGTTGGACTAAGTCCCCAGGCCCCTTAGCCACCACAACGT
DNA 2: ACGTTGTGGTGGCTAAGGGGCCTGGGGACTTAGTCCAACC
[1]
  binding result: binds
[2]
  binding result: binds

B2: DNA II (72 bp) (dsDNA)
DNA 1: ACTCTAGAGGATCCCCGGTTGGACTAAGTCCCCAGGCCCCTTAGCCACCACAACGTGGGTACCGAGCTCGAA
DNA 2: TTCGAGCTCGGTACCCACGTTGTGGTGGCTAAGGGGCCTGGGGACTTAGTCCAACCGGGGATCCTCTAGAGT
[3]
  binding result: binds
[4]
  binding result: binds
GyrB R321A
  binding result: no binding
[5]
  binding result: binds
[6]; label: 32P 5'-end
  binding result: binds
ParE
  binding result: binds
[1]
  binding result: binds
GyrB (MsGyrB)
  binding result: binds

B3: biotinylated 72 bp DNA (dsDNA)
DNA 1: ACTCTAGAGGATCCCCGGTTGGACTAAGTCCCCAGGCCCCTTAGCCACCACAACGTGGGTACCGAGCTCGAA
DNA 2: TTCGAGCTCGGTACCCACGTTGTGGTGGCTAAGGGGCCTGGGGACTTAGTCCAACCGGGGATCCTCTAGAGT
[7]
  binding result: binds

B4: DNA III (143 bp) (dsDNA)
DNA 1: GTAAAACGACGGCCAGTGCCAAGCTTGCATGCCTGCAGGTCGACTCTAGAGGATCCCCGGTTGGACTAAGTCCCCAGGCCCCTTAGCCACCACAACGTGGGTACCGAGCTCGAATTCGTAATCATGGTCATAGCTGTTTCCTG
DNA 2: CAGGAAACAGCTATGACCATGATTACGAATTCGAGCTCGGTACCCACGTTGTGGTGGCTAAGGGGCCTGGGGACTTAGTCCAACCGGGGATCCTCTAGAGTCGACCTGCAGGCATGCAAGCTTGGCACTGGCCGTCGTTTTAC
[6]; label: 32P 5'-end (forward primer)
  binding result: binds
[1]
  binding result: binds
